Results published in paper PMC9628034.

Molecular target: apolipoprotein E, apoE4 isoform, of human cerebrospinal fluid (human (endogenous in CSF)) (UniProt P02649)
Assay: native gel or EMSA; blue-native PAGE 4-16% of unheated AD CSF; western blot with AB178479; dimer/monomer quotient from band intensities

“apolipoprotein E, apoE4 isoform, of human cerebrospinal fluid (from UniProt P02649 19-317) (natural protein)” was tested, and the ratio D/M (apoE dimer/monomer quotient) was 0.24.
